From article PMC5799372, “A NIN-LIKE PROTEIN mediates nitrate-induced control of root nodule symbiosis in Lotus japonicus”

How the values were obtained:
[1] = molecular target: T1, NRSYM1(531-976)-myc (Lotus japonicus (WT, MG-20?), UniProt A0A2Z5V8A6 531-976); assay: EMSA; 20 mM HEPES-KOH pH 7.9, 50 mM KCl, 1 mM DTT, 4% glycerol, 0.1% Triton X-100, BSA (2 mg) and salmon sperm DNA (1 mg) as printed, 10 ul, 30 min room temperature; settings: protein: ivt, tags: 3xMyc (cds cloned downstream of the tag, N-terminal), 5' overhang 4 nt (ggtg) on both strands as printed
T1 sequence (A0A2Z5V8A6 entry or part of it): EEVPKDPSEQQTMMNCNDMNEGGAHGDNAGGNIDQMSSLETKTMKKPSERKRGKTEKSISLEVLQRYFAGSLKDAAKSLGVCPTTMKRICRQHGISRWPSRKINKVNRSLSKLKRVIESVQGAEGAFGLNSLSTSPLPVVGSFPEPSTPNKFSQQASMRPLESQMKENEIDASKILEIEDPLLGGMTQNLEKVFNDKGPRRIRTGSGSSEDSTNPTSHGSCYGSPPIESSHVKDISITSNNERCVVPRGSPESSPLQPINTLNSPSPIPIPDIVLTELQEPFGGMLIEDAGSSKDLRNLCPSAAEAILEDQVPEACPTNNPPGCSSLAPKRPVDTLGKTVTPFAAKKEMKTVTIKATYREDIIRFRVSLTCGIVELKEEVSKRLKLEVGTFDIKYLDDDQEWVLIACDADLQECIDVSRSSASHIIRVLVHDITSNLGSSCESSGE

[2] = molecular target: T1, NRSYM1(531-976)-myc; assay: competition; unlabeled competitor 20x/100x vs CLE-RS2-1 probe; 20 mM HEPES-KOH pH 7.9, 50 mM KCl, 1 mM DTT, 4% glycerol, 0.1% Triton X-100, BSA (2 mg) and salmon sperm DNA (1 mg) as printed, 10 ul, 30 min room temperature; settings: protein: ivt; tags: 3xMyc (cds cloned downstream of the tag, N-terminal); label: biotin (probe); 5' overhang 4 nt (ggtg) on both strands as printed

B1: CLE-RS2-3 (dsDNA)
DNA 1: GGTGGTATCAAACTGACCCCTAGTTTCAGTCCAAAGCCACCTTGATTG
DNA 2: GGTGCAATCAAGGTGGCTTTGGACTGAAACTAGGGGTCAGTTTGATAC
B1: binds ([1]; label: biotin (probe)).

B2: LjNIR1-3 (dsDNA)
DNA 1: GGTGACACAAACACGACCCTTTGTCACAACCAAAGGTCCATTGTAGCA
DNA 2: GGTGTGCTACAATGGACCTTTGGTTGTGACAAAGGGTCGTGTTTGTGT
B2: binds ([1]; label: biotin (probe)).

B3: LjNIR1-3m1 (dsDNA)
DNA 1: GGTGACACAAACACGAGGGAATGTCACAACCAAAGGTCCATTGTAGCA
DNA 2: GGTGTGCTACAATGGACCTTTGGTTGTGACATTCCCTCGTGTTTGTGT
B3: no binding ([1]; label: biotin).

B4: CLE-RS2-1 (dsDNA)
DNA 1: GGTGTGTGAGTTCTGACCCTTAAGCCTTGGAAAGGACAGTCATGCAA
DNA 2: GGTGTTGCATGACTGTCCTTTCCAAGGCTTAAGGGTCAGAACTCACA
B4: binds ([1]; label: biotin (probe)).

B5: CLE-RS2-1m (dsDNA)
DNA 1: GGTGTGTGAGTTCTGAGGGAAAAGCCTTGGAAAGGACAGTCATGCAA
DNA 2: GGTGTTGCATGACTGTCCTTTCCAAGGCTTTTCCCTCAGAACTCACA
B5: no binding [2].

B6: CLE-RS2-4 (dsDNA)
DNA 1: GGTGATATATTCATGATCTTTAATTCACTTGAAGAGTTAGTGATTGAT
DNA 2: GGTGATCAATCACTAACTCTTCAAGTGAATTAAAGATCATGAATATAT
B6: binds ([1]; label: biotin (probe)).
